For one molecule, Tagg results are on record in patent US20110129935A1, “PROTEIN STABILITY ASSAY USING A FLUORESCENT REPORTER OF PROTEIN FOLDING” (James Cook University, priority 2008, published 2011).

The series in a line: Thermal aggregation profiles and Tagg by SDS-PAGE. Format: physicochemical. Conditions: heat treated separately 30 minutes, 42 to 64° C.

Method: After incubation, reactions were stopped by transferring the samples to ice for 10 minutes prior to centrifugation at 18,000 r.p.m. for 20 minutes at 4° C. in a Beckman Coulter (Fullerton, Calif., USA) centrifuge (rotor: F12×8.2). The supernatants (3 or 5 μl) were then analyzed by 10% NEXT-GEL SDS-PAGE (Amresco, Solon, Ohio, USA). The gels were illuminated on a transilluminator at 365 nm followed by Coomassie blue staining. Coomassie-stained protein bands corresponding to Ffold were integrated using ImageJ (see the website at rsbweb.nih.gov/ij/) and plotted against the temperature.
To determine the Tagg at which 50% of proteins were aggregated, the thermal aggregation profile data were fit to the following sigmoid function:
Ffold=1−(1/(1+e^(Tagg-T/c))
where Ffold is the normalized fluorescence intensity at temperature T, and c is the Hill slope factor.
Ffold was then determined by SDS-PAGE. For this experiment, equal amounts of the three proteins were mixed to avoid variations in buffer composition and protein concentrations.
Due to the oligomeric quaternary structure of these proteins, experiments were performed separately to avoid the formation of heterogeneous protein complexes.

B1: GK: tetrameric glycerol kinase from E. coli (protein, UniProt P0A6F3 2-502, looked up)
Glycerol kinase: TEKKYIVALDQGTTSSRAVVMDHDANIISVSQREFEQIYPKPGWVEHDPMEIWATQSSTLVEVLAKADISSDQIAAIGITNQRETTIVWEKETGKPIYNAIVWQCRRTAEICEHLKRDGLEDYIRSNTGLVIDPYFSGTKVKWILDHVEGSRERARRGELLFGTVDTWLIWKMTQGRVHVTDYTNASRTMLFNIHTLDWDDKMLEVLDIPREMLPEVRRSSEVYGQTNIGGKGGTRIPISGIAGDQQAALFGQLCVKEGMAKNTYGTGCFMLMNTGEKAVKSENGLLTTIACGPTGEVNYALEGAVFMAGASIQWLRDEMKLINDAYDSEYFATKVQNTNGVYVVPAFTGLGAPYWDPYARGAIFGLTRGVNANHIIRATLESIAYQTRDVLEAMQADSGIRLHALRVDGGAVANNFLMQFQSDILGTRVERPEVREVTALGAAYLAGLAVGFWQNLDELQEKAVIEREFRPGIETTERNYRYAGWKKAVKRAMAWEEHDE
Molecule B1 came in with a Tagg of 50.4±0.3 °C.
